Assay results from article PMC10123090, “The MksG nuclease is the executing part of the bacterial plasmid defense system MksBEFG” (Nucleic Acids Research, 2023).
Values belong to the molecule of their own block, whether it stands above or below them.

How the values were obtained:
[1] = molecular target: T1, MksBEF (Corynebacterium glutamicum, UniProt Q8NLY2); test: EnzChek phosphate release; assay type: biochemical; conditions: 2 mM Mg-ATP, 30 °C, with or without 50 ng/ul plasmid DNA (pBHK18)
T1 construct: gene Cgl2804; with Kleisin subunit MksF (MukF/JetA homologue); Kite subunit MksE (MukE/JetB homologue)

[2] = molecular target: MksB (His10-MksB), condensin-like ATPase subunit of the Corynebacterium glutamicum MksBEFG complex (Corynebacterium glutamicum) (UniProt Q8NLY2); test: BLI; BLItz, streptavidin biosensors; biotinylated bait immobilised (MksE 25 ug/ml, MksB 50 ug/ml or MksG 100 ug/ml), MksF as analyte 1-5 uM; BLI buffer 10 mM Na2HPO4, 137 mM NaCl, 2.7 mM KCl, 1.8 mM KH2PO4, 10 mM MgCl2, 5% glycerol, pH 7.4; 1:1 binding model
[3] = molecular target: MksE (His6-MksE), kite subunit of the Corynebacterium glutamicum MksBEFG complex (Corynebacterium glutamicum) (UniProt Q8NLY1); test: as above
[4] = molecular target: the molecule itself; test: crystal structure; X-ray, 4.6 A, solved by molecular replacement with AlphaFold2 domain models; crystals in 10% PEG 6K, 30% ethanol, 10 mM sodium acetate
[5] = molecular target: T2, MksF (His6-MksF), kleisin subunit of the Corynebacterium glutamicum MksBEFG complex (Corynebacterium glutamicum, UniProt Q8NLY0 1-495); test: BLI; BLItz, streptavidin biosensors; biotinylated bait immobilised (MksE 25 ug/ml, MksB 50 ug/ml or MksG 100 ug/ml), MksF as analyte 1-5 uM; BLI buffer 10 mM Na2HPO4, 137 mM NaCl, 2.7 mM KCl, 1.8 mM KH2PO4, 10 mM MgCl2, 5% glycerol, pH 7.4; 1:1 binding model; conditions: both partners purified
T2 construct: MksF of Corynebacterium glutamicum, gene mksF (cg3106), amplified from genomic DNA and ligated NdeI/BamHI into pET28a (plasmid pMG001); Analyte in the BLI experiments with constants; biotinylated (EZ-Link NHS-PEG4, ratio 3:1) where used as bait; Also purified together with MksE; also called cg3106; source: E. coli BL21 (DE3) pLysS, purified (Ni-NTA, SEC)
T2 sequence (looked up): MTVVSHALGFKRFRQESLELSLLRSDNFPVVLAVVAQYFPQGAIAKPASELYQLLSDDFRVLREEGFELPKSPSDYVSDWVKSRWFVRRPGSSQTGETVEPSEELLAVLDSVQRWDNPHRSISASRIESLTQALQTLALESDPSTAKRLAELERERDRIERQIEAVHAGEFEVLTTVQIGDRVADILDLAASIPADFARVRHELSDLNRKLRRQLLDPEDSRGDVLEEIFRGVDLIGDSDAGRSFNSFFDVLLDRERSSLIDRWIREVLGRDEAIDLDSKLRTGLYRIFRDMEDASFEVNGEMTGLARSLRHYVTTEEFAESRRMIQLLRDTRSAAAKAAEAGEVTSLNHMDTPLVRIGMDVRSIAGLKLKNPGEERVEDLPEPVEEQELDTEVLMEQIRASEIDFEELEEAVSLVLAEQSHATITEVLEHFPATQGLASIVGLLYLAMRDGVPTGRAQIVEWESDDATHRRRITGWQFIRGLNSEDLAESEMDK

Chain of MksB (His10-MksB), condensin-like ATPase subunit of the Corynebacterium glutamicum MksBEFG complex (Corynebacterium glutamicum) (Q8NLY2 entry or part of it, one chain of several): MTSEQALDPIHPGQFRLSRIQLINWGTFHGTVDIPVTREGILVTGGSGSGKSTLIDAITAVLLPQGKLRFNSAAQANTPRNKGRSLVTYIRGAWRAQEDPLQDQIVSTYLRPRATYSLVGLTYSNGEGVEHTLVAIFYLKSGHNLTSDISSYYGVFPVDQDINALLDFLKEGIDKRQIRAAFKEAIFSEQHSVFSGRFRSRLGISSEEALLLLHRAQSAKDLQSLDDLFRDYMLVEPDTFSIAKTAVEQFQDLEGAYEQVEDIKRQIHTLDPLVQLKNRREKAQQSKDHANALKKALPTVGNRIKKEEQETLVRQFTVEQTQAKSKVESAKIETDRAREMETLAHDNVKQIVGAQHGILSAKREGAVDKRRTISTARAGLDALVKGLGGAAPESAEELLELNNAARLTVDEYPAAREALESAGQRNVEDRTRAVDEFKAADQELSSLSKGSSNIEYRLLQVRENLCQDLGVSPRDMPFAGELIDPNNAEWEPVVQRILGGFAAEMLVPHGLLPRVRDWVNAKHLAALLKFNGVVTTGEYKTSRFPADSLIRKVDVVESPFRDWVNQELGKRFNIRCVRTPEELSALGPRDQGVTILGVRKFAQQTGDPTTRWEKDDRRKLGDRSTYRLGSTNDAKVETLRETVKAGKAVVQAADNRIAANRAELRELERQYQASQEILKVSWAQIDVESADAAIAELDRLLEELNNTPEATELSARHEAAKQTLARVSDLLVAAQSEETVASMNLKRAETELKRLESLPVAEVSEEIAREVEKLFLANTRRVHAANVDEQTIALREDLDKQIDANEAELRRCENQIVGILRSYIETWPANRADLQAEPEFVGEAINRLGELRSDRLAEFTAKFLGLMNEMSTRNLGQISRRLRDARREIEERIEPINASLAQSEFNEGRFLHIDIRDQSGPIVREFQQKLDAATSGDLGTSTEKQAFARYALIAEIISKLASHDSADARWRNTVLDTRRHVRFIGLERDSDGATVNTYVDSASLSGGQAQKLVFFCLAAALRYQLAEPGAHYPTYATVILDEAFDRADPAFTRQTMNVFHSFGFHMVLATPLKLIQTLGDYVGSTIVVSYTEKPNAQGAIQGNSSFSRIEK
Chain of MksE (His6-MksE), kite subunit of the Corynebacterium glutamicum MksBEFG complex (Corynebacterium glutamicum) (Q8NLY1 entry or part of it, one chain of several): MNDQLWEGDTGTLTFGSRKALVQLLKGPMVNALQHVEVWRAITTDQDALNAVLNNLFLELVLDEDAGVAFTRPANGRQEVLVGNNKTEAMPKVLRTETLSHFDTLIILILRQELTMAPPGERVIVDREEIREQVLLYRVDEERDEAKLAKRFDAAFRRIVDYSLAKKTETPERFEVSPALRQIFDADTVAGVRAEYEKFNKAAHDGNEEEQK
T1 sequence (Q8NLY2 entry or part of it, one chain of several): as the sequence (Q8NLY2 entry or part of it, one chain of several) above
T1 sequence (Q8NLY1 entry or part of it, one chain of several, further chain): as the sequence (Q8NLY1 entry or part of it, one chain of several) above

Kd [2]: 4.94 µM | koff [2]: 0.138 s⁻¹ | kon [2]: 27800 M⁻¹ s⁻¹ | Kd [3]: 2.17 µM | koff [3]: 0.16 s⁻¹ | kon [3]: 74200 M⁻¹ s⁻¹
Molecule: MksF (His6-MksF), kleisin subunit of the Corynebacterium glutamicum MksBEFG complex (from UniProt Q8NLY0 1-495) (natural protein)

Kd [5]: 6 µM | koff [5]: 0.136 s⁻¹ | kon [5]: 22500 M⁻¹ s⁻¹
B2: MksG (His6-MksG), nuclease subunit of the Corynebacterium glutamicum MksBEFG complex (enzyme)
chain: MPLFIDDALHRSKKYFHAHLSELLLGEFAGLSLPLHPPTAAKAAADIDATREFIRQWEGRDDVEYAIRNWSPVGLGKTEVPVRLTLNTTEELVVFAQVEDEWSSLHERFSQLSGFTAEVVAKHVSLWRSLSNDDLSKAVLVVDWFLKHPNSGLLKRAVAVEGVHTKWLENHRVLIETLVADKRGEPGRADLGLGDAEARVRLRFHSVDAPAGLTDIEVPLSNLCELQEPQVILMVENLDSFLALPTWPGVTIAWGAGYRAVDIVRGPYFSNGRLLYWGDLDLDGFKILDGVRSHVPHTESVLMNSETVSRWRYLGVADREFKAESFDNLHDFESDALDLLITDGELRIEQERIRLDVAVEEIEKVIRG
notes: MksG of Corynebacterium glutamicum, gene mksG (cg3103), amplified from genomic DNA and ligated NdeI/BamHI into pET28a (plasmid pMG003); Biotinylated (EZ-Link NHS-PEG4, ratio 3:1) where used as bait in BLI; The methods speak of 'dimeric MksG'; also called cg3103; source: E. coli BL21 (DE3) pLysS, purified (Ni-NTA, SEC)

Further lines, the molecule ahead of its results:

Molecule: Nc1ncnc2c1ncn2[C@@H]1O[C@H](COP(=O)(O)OP(=O)(O)OP(=O)(O)O)[C@@H](O)[C@H]1O [ATP]
EnzChek phosphate release [1]: kleisin subunit MksF and the kite subunit MksE stimulated the ATPase activity of MksB

B1: MksG, 6xHis-SUMO-tagged construct for crystallization (enzyme, Corynebacterium glutamicum)
chain: B2 chain
notes: MksG of Corynebacterium glutamicum (cg3103), amplified from pMG003 and subcloned into a pET28 derivative with an N-terminal 6xHis-SUMO tag; The methods tell of no cleavage of the 6xHis-SUMO tag before crystallization; also called 6xHis-SUMO-MksG; source: E. coli BL21 C41, purified (Ni-NTA, SEC)
stoichiometry N [4]: 2
